Laboratory results as given in patent publication US8217140B2, “Peptides capable of binding to serum proteins and compounds, constructs and polypeptides comprising the same” (Ablynx N.V., priority 2008, dated 2012).

Tests used:
[1] = cynomolgus monkey, in vivo; for AUCinf / C0: 2 mg/kg
Experimental: The pharmacokinetic profile of the constructs was analyzed in male cynomolgus monkeys of approximately 3 to 4 years old and was compared to the reference (SEQ ID NO:165). The constructs and the control were each injected in three monkeys at a dose of 2 mg/kg via an intravenous bolus injection. Blood samples were taken at predose, 5 min, 20 min, 1 h, 2 h, 4 h, 8 h (test day 1) after administration and at test days 2, 3, 5, 7, 9, 12, 15, 18, 21, 24, 27, 30, 33. In order to obtain at least 1 mL plasma per animal per sampling time, a sufficient volume of whole blood was withdrawn per sampling time. Plasma was collected after whole blood centrifugation for 30 minutes at 2200 g at room temperature (RT). The plasma samples were stored at −80° C. until analysis.
For bioanalytical determination of constructs and control article in monkey plasma, plasma samples were tested for levels of constructs and the control using ELISA based PK assays. The detection of control and constructs in the ELISA assays is based on the binding of these Nanobodies with vWF and the assay set-ups are as such that total vWF-binding Nanobody is detected.
For the reference (SEQ ID NO:165) and the construct of SEQ ID NO:167, 96-well microtiter plates (Maxisorp, Nunc, Wiesbaden, Germany) were coated overnight at 4° C. with neutravidin (Pierce) in 10:10 buffer at 3 μg/ml. Wells were aspirated and blocked for 1 hour at RT with PBS/1% casein. After this blocking step, wells were washed with PBS/0.05% Tween20. A biotinylated bivalent Nanobody against the constructs was added to the neutravidin coated plate at 2 μg/ml in PBS/0.1% casein and incubated for 1 hour at RT. After the incubation step of this capture tool, wells were washed 3 times with PBS/0.05% Tween20.
Preparations of the standards, QC samples and dilutions of the test samples were performed in a non-coated (polypropylene) plate. For the standard curve and QC-samples, solutions at the required concentrations were prepared in PBS/0.1% casein and spiked into 100% monkey plasma. To prepare standards and QC samples, a 1/100 dilution of the pure monkey plasma dilutions was made in IgM-Reducing Agent (Immunochemistry Technologies, Bloomington, USA) supplemented with 2.5% pooled human plasma (referred to as sample diluent). For the test samples, dilution factors for the test samples were estimated, and ranged between 1/100 to 1/9000 for the reference of SEQ ID NO:165 tests and between 1/100 and 12000 for the construct of SEQ ID NO: 167. Samples were diluted 1/100 in sample diluent in a first step, and if needed, further dilution was done in sample diluent supplemented with 1% cynomolgus plasma.
Standards, QC samples and diluted test samples were transferred onto the coated plate and incubated for 1 hour at RT. Afterwards the plates were washed followed by a complexation step with purified vWF (ZLB Behring). vWF diluted to 2.5 μg/ml for the assay for the reference of SEQ ID NO:165 and to 3 μg/ml for the assay for the construct of SEQ ID NO: 167 in PBS/0.1% casein was incubated on the plates for 30 minutes at RT. Plates were washed and Nanobody/vWF complexes bound to the capture tool detected with Rabbit anti-human vWF Ab (Dako, Denmark), diluted 1/2000 in PBS/0.1% casein and incubated for 30 minutes at RT. After washing, a 1/15000 dilution in PBS/0.1% casein of Horse-Radish-Peroxidase labelled goat anti-rabbit Ab (Dako, Denmark) was added to the plate and incubated for 30 minutes at RT. The enzyme coupled to the Ab catalyzes a chemical reaction with the substrate sTMB (3,3′,5,5′-tetramethylbenzidine, SDT reagents, Brussels, Belgium), resulting in a colorimetric change. After stopping this reaction after 10 minutes using HC1 (1N), the intensity of the colour was measured using a spectrophotometer at 450 nm. […]

[2] = system: VWF; experiment: Pharmacodynamic profile: ristocetin cofactor activity assay (% RICO) after i.v. administration; format: in vivo, Cynomolgus monkey; conditions: for Tonset values: estimated, i.v. application; for AUC below T / Time below T: threshold 20% RICO, male Cynomolgus monkey, mean n = 3; for AUC below T / Time below T / Tonset / Toffset: i.v. bolus 2 mg/kg; for Tonset: time % RICO first drops below threshold; for Toffset: time % RICO first returns above threshold
Experimental: For the constructs used in Example 14, pharmacodynamic characteristics upon compound administration were measured by means of a ristocetin cofactor activity assay (Biopool). The ristocetin cofactor activity is a functional assay for VWF, measuring the capacity of VWF to interact with the platelet receptor glycoprotein Ib using ristocetin as a modulator.
For pharmacodynamic data analysis, descriptive statistics (mean and SD) were calculated per dose group and per sampling time point using Microsoft Excel 2007. Response parameters and associated statistics for the overall time course were calculated by noncompartmental analysis of the response-time data using WinNonlin Pro 5.1 (Pharsight Corporation, USA; 2006). The non-compartmental analysis was based on a model for pharmacodynamic data (Model 220). The threshold value was set at 20% based on extensive historical PK/PD data on the vWF-0001 compound. Preclinical studies have shown that a complete inhibition of the pharmacodynamic marker are correlated with full antithrombotic efficacy. The following main pharmacodynamic parameters were determined: time below the threshold (Time below T), area under the threshold (AUC below T), time at which the % RICO first drops below the threshold (Tonset), and time at which the % RICO first returns back above the threshold (Toffset).

[3] = molecular target: human serum albumin (Homo sapiens, UniProt P02768); experiment: Surface plasmon resonance (BIAcore 3000) of MycHis tagged 2D3-Expedite fusions, Example 10; format: binding; conditions: for binding to HSA compared to 2D3-9GS-56E4-MycHis: FIG. 8A; for ka / dissociation rate constant (koff): Human serum albumin; for ka: chip ~3000 RU
Experimental: (§1) The binding of the resulting 2D3-9GS-56E4-MycHis, 2D3-9GS-59C2-MycHis, 2D3-9GS-59F2-MycHis and 2D3-9GS-59H12-MycHis fusion proteins to human and cynomolgus serum albumin (HSA and CSA respectively) was determined using surface plasmon resonance analysis. For this purpose, binding to HSA and CSA was assessed in BIAcore™ 3000, by injecting concentration series of the fusion proteins ranging from 2 μM to 200 nM on a CM5 chip coated with ˜3000 RU HSA or CSA. Coating of the chip (CM5) was performed by amine coupling using NHS/EDC for activation and ethanolamine for deactivation (Biacore amine coupling kit). HBS-EP was used as flow buffer at a rate of 45 μl min-1. 90 μl of sample was injected for 120 s.

[4] = molecular target: Cynomolgus monkey serum albumin (Macaca fascicularis, UniProt A2V9Z4); experiment: as above; format: binding; conditions: for ka / koff (dissociation rate constant): Cynomolgus monkey serum albumin; for ka: chip ~3000 RU; for binding to CSA compared to 2D3-9GS-56E4-MycHis: FIG. 8B
Chain of Cynomolgus monkey serum albumin (A2V9Z4 25-608): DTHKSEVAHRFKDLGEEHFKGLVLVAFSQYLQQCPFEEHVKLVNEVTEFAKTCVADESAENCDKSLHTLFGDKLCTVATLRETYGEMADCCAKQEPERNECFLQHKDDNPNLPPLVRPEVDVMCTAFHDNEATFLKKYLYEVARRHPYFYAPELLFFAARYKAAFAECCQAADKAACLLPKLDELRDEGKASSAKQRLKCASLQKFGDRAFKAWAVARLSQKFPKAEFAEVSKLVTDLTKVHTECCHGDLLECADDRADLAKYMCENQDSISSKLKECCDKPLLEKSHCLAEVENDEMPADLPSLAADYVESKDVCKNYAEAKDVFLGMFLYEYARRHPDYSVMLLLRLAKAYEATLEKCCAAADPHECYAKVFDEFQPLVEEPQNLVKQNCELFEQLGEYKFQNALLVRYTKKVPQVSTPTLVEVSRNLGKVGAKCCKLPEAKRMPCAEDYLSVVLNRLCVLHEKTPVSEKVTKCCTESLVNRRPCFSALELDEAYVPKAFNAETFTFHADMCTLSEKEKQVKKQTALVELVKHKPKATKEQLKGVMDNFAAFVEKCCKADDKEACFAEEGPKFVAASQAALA
Experimental: as §1

Molecule	plasma level after the initial drop [1] [ng/mL]	plasma level directly after i.v. injection ([1]; iv)	AUCinf ([1]; iv) [µg·h/mL]	C0 ([1]; iv) [ng/mL]	Tonset values [2] [min]	AUC below T [2] [% RICO * h]	Time below T [2] [h]	Tonset [2] [h]	Toffset [2] [h]	Vdss lower relative to vWF0001 [1] [fold]	dominant half-life (t½ dominant) increase relative to vWF0001 [1] [fold]	mean CL decrease compared to the control [1] [fold]	mean AUC under the threshold increase relative to vWF0001 ([2]; i.v. bolus) [fold]	time below the threshold increase relative to vWF0001 ([2]; i.v. bolus) [fold]	binding to HSA compared to 2D3-9GS-56E4-MycHis [3]	ka [3]	dissociation rate constant (koff) [3] [s⁻¹]	ka [4]	koff (dissociation rate constant) [4] [s⁻¹]	binding to CSA compared to 2D3-9GS-56E4-MycHis [4]
12A2_sv1-AAA-12A2_sv1 (protein) DVQLVESGGGLVQPGGSLRLSCAASGRTFSYNPMGWFRQAPGKGRELVAAISRTGGSTYYPESVEGRFTISRDNAKRTVYLQMNSLRAEDTAVYYCAAAGVRAEQGRVRTLPSEYTFWGQGTQVTVSSAAAEVQLVESGGGLVQPGGSLRLSCAASGRTFSYNPMGWFRQAPGKGRELVAAISRTGGSTYYPESVEGRFTISRDNAKRTVYLQMNSLRAEDTAVYYCAAAGVRAEQGRVRTLPSEYTFWGQGTQVTVSS	~2000	about 45 ug/ml	62.6	45300	~5	6.60	1.21	0.077	1.28	–	–	–	–	–	–	–	–	–	–	–
12A2_sv1-9GS-59C2-9GS-12A2_sv1 (protein) DVQLVESGGGLVQPGGSLRLSCAASGRTFSYNPMGWFRQAPGKGRELVAAISRTGGSTYYPESVEGRFTISRDNAKRTVYLQMNSLRAEDTAVYYCAAAGVRAEQGRVRTLPSEYTFWGQGTQVTVSSGGGGSGGGSRDWDFDVFGGGTPVGGGGGGSGGGSEVQLVESGGGLVQPGGSLRLSCAASGRTFSYNPMGWFRQAPGKGRELVAAISRTGGSTYYPESVEGRFTISRDNAKRTVYLQMNSLRAEDTAVYYCAAAGVRAEQGRVRTLPSEYTFWGQGTQVTVSS	–	–	1320	48900	~5	379	39.9	0.079	40.0	12	70	22	57	33	–	–	–	–	–	–
2D3-9GS-59C2-MycHis: SEQ ID NO: 160 (protein, Myc-His tag) EVQLVESGGSLVQPGGSLRLSCAASGFTFDDYAMSWVRQVPGKGLEWVSSINWSGTHTDYADSVKGRFTISRNNANNTLYLQMNSLKSEDTAVYYCAKNWRDAGTTWFEKSGSAGQGTQVTVSSGGGGSGGGSAAARDWDFDVFGGGTPVGGAAAEQKLISEEDLNGAAHHHHHH	–	–	–	–	–	–	–	–	–	–	–	–	–	–	improved binding	3.73E+03 1/ms	0.00179	2.75E+03 1/ms	0.00213	improved binding
2D3-9GS-59F2-MycHis: SEQ ID NO: 159 (protein, Myc-His tag) EVQLVESGGSLVQPGGSLRLSCAASGFTFDDYAMSWVRQVPGKGLEWVSSINWSGTHTDYADSVKGRFTISRNNANNTLYLQMNSLKSEDTAVYYCAKNWRDAGTTWFEKSGSAGQGTQVTVSSGGGGSGGGSAAARYWDFDVFGGGTPVGGAAAEQKLISEEDLNGAAHHHHHH	–	–	–	–	–	–	–	–	–	–	–	–	–	–	improved binding	6.14E+03 1/ms	0.00351	4.85E+03 1/ms	0.00504	improved binding
2D3-9GS-59H12-MycHis: SEQ ID NO: 161 (protein, Myc-His tag) EVQLVESGGSLVQPGGSLRLSCAASGFTFDDYAMSWVRQVPGKGLEWVSSINWSGTHTDYADSVKGRFTISRNNANNTLYLQMNSLKSEDTAVYYCAKNWRDAGTTWFEKSGSAGQGTQVTVSSGGGGSGGGSAAARSWDFDVFGGGTPVGGAAAEQKLISEEDLNGAAHHHHHH	–	–	–	–	–	–	–	–	–	–	–	–	–	–	improved binding	4.59E+03 1/ms	0.00304	3.45E+03 1/ms	0.00441	improved binding
